{"source": "patent US6517838B1", "about": "“Decorin binding protein essential peptides and methods of use” (The Texas A&M University System, priority 2000, dated 2003)", "molecules": {"B1": {"name": "DbpA: recombinant decorin binding protein A of B. burgdorferi strain 297, N-terminal His-tag fusion (protein)", "chain": "MIKCNNKTFNNLLKLTILVNLLISCGLTGATKIKLESSAKAIVDEIDAIKKKAASMGVNFDAFKDKKTGSGVSENPFILEAKVRATTVAEKFVIAIEEEATKLKETGSSGEFSAMYDLMFEVSKPLQELGIQEMTKTVSMAAEENPPTTAQGVLEIAKKMREKLQRVHKKNQDTLKKKNTEDSTAKS", "modifications": "N-terminal His-tag; Borrelia Burgdorferi"}}, "key": {"[1]": {"tested_on": "B. burgdorferi strain B31", "test": "Joint cultures for spirochetes after infection of immunized mice", "format": "in vivo", "conditions": "immunized C3H/HeJ mice, joints 14 days post infection", "experimental": "(§1) Mice were immunized with recombinant DbpA (SEQ ID 1), P2 (SEQ ID 3), P4 (SEQ ID 5), P5 (SEQ ID 6), P4/P5 (SEQ ID 5/SEQ ID 6), P9 (SEQ ID 10), or the corresponding lysine modified counterparts (P2 Mod, P4 Mod, P5 Mod or P9 Mod) using the immunization schedule established by Hanson (11). Briefly, mice were immunized with 20 μg of protein or peptide in complete Freund's adjuvant (CFA) (Week 1), boosted at week 4 with the same dose in incomplete Freund's adjuvant (IFA) and infected at week 6.\n(§2) Low-passage B. burgdorferi strain B31 (passage 5) was used in this study and cultured in BSK II (Barbour-Stoenner-Kelly) medium at 34° C. (22). Bacterial cultures were incubated in CO2-enriched atmosphere in a GasPak chamber (BBL, Baltimore, Md.) containing BBL GasPak Plus envelopes and a GasPak anaerobic indicator (Beckton dickinson, Cockeysville, Md.) until the cells reached log phase. Bacterial counts were determined using dark field microscopy and a Petroff-Hausser chamber.\n(§3) Mice (15 mice/group) were anesthetized with Metofane (methoxyflurane; Pitman-Moore, Mundelein, Ill.) and 10 mice/ group were infected i.d. at the base of the tail with 10^4 Borrelia in 100 μl of media 6 six weeks after the first immunization. The remaining 5 mice/group were tested for a DTH response to recombinant DbpA. Following infection, mice were bled 7 and 14 days postinfection. […]"}, "recombinant DbpA": {"tested_on": "recombinant DbpA", "test": "Delayed-type hypersensitivity (DTH) to DbpA, footpad swelling in immunized mice", "format": "in vivo, B. burgdorferi", "experimental": "as §1\nNative C3H/HeJ mice immunized with DbpA (SEQ ID 1), P2 (SEQ ID 3), P4 (SEQ ID 5), P5 (SEQ ID 6), P4/P5 (SEQ ID 5/SEQ ID 6), P9 (SEQ ID 10), or the corresponding lysine modified counterparts (P2 Mod, P4 Mod, P5 Mod or P9 Mod) were challenged with 2 μg of recombinant DbpA in PBS (50 μl/footpad) 7 weeks after the initial immunization. All footpads were measured before and 24 h after challenge using a spring-loaded micrometer (Mitutoyo, Tokyo, Japan) as described (23). The mice were anesthetized as described above during footpad measurements and injections. Swelling was determined by subtracting the footpad measurements before challenge from those taken 24 h after challenge.\nDTH is an in vivo method of testing T cell-dependent immune responses that are manifested by inflammation at the site of antigenic challenge. Mice immunized with DbpA (SEQ ID 1), P2 (SEQ ID 3), P4 (SEQ ID 5), P5 (SEQ ID 6), P4/P5 (SEQ ID 5/SEQ ID 6) combined, P9 (SEQ ID 10), or the corresponding lysine-modified peptides were challenged in the footpad with 2 μg of recombinant DbpA (SEQ ID 1). Footpad measurements were taken before and after challenge as described above. DbpA (SEQ ID 1)-immunized mice developed a significant footpad swelling of 53.3±3.5 (not shown) compared to mice immunized with adjuvant alone or naive mice receiving only the DbpA (SEQ ID 1) challenge. Peptide-immunized mice, with the exception of P2 (SEQ ID 3), also developed a significant DTH response to DbpA (SEQ ID 1) compared to the lysine-modified controls."}, "[2]": {"tested_on": "polyclonal, rabbit anti-DbpA (625)", "test": "ELISA recognition of DbpA-peptides by polyclonal anti-DbpA serum", "format": "binding", "conditions": "2 μg peptide/well, 1:1000 anti-DbpA serum, FIG. 2", "experimental": "Immulon-1 microtiter plate wells (Dynatech Labs, Chantilly, Va.) were coated with 2.0 μg of each peptide in 50 μl of PBS overnight at 4° C. The wells were washed and then blocked with 400 μl of Super Block (Pierce, Rockford, Ill.). All incubations were done at 37° C. and all dilutions were made using Super Block. After washing, 100 μl of a 1:1000 dilution of polyclonal, rabbit anti-DbpA (625) (17) was added for 1 hr. After washing, 100 μl of a 1:1000 dilution of AP-conjugated anti-rabbit IgG (Bio-Rad, Hercules, Calif.) was added for 1 hr. The wells were washed and incubated with 100 μl of a 1 mg/ml of Sigma 104 phosphatase substrate (Sigma Chemical Co., St. Louis, Mo.) dissolved in 1 M diethanolamine, 0.5 mM MgCl2, pH 9.8. Plates were washed with 0.05% PBS-Tween 20 between all steps. The absorbance at 410 nm was determined in a Microplate Reader (Molecular Devices, Menlo Park, Calif.).\nImmunizations utilizing peptide formulations require that immune responses to the peptide(s) result in recognition of native-protein epitopes. […] Cross-reactivity of peptide epitopes with native protein was examined by ELISA."}, "[3]": {"tested_on": "B. burgdorferi strain B31", "test": "Arthritis assessment, histopathology of hind tibiotarsal joints of immunized infected mice", "format": "in vivo", "experimental": "as §1\nMice (15 mice/group) were anesthetized with Metofane (methoxyflurane; Pitman-Moore, Mundelein, Ill.) and 10 mice/ group were infected i.d. at the base of the tail with 10^4 Borrelia in 100 μl of media 6 six weeks after the first immunization. The remaining 5 mice/group were tested for a DTH response to recombinant DbpA. Following infection, mice were bled 7 and 14 days postinfection. Serum was collected for antibody analysis and blood cultured for the detection of live spirochetes by inoculating 5 ml of BSK II medium with 50 μl of blood from each infected mouse and cultured for 2 weeks at 34° C. as described above. Also on day 14 postinfection, mice were sacrificed and one hind tibiotarsal joint, heart, bladder, and a 3 mm skin biopsy from the ear were aseptically removed and inoculated into separate tubes containing 6 ml of BSK II medium with antibiotics (50 μg/ml rifampacin and 100 μg/ml phosphomycin (Sigma), and incubated for 2 weeks at 34° C. as described above. Evidence of arthritis was determined by histopathological examination of formalin-fixed hind tibiotarsal joint samples.\nEvidence of arthritis was determined by histopathological examination of formalin-fixed hind tibiotarsal joint samples. Tissues for histological examination were embedded in paraffin and stained with hematoxylin and eosin. All sections were examined without knowledge of the vaccination status of the mouse. Arthritis was scored by one of two methods. A positive/negative assessment was used, as well as assignment of an arthritis severity score. Joints were scored according to the levels of infiltrate (neutrophils) as follows: 0, no arthritis, 1, minimal or rare (≦10% tissue involvement); 2, mild (10-20%); […]; and 4, severe (>50%).\nA similar trend was also observed for joints examined for arthritis (Table I). DbpA-(SEQ ID 1), P4-(SEQ ID 5), and P5-(SEQ ID 6) immunized mice had the lowest arthritis ratings (0.2, 1.2, and 0.4, respectively) and lowest arthritis incidence (20, 60, and 20%, respectively)."}, "[4]": {"tested_on": "B. burgdorferi strain B31", "test": "Blood cultures for spirochetes after infection of immunized mice", "format": "in vivo", "conditions": "immunized C3H/HeJ mice, blood 7 days post infection with 10^4 Borrelia i.d.", "experimental": "as §1, §2, §3"}, "decorin": {"target": "T1, decorin (Bos taurus, UniProt P21793)", "T1 construct": "Decorin from bovine fetal skin was purified and stored in 4 M guanidine hydrochloride; from tissue; host or cells: decorin from bovine fetal skin; DbpA made in E. coli JM101", "T1 sequence (P21793 31-360)": "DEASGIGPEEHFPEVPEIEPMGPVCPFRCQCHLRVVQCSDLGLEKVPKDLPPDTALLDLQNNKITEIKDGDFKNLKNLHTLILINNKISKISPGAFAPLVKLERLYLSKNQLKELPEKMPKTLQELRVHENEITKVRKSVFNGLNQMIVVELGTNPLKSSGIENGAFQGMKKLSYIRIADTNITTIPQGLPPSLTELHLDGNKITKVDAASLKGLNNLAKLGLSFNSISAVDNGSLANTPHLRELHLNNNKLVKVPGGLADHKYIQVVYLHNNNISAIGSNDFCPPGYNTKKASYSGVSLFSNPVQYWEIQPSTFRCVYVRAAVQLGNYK", "test": "Western ligand blot with digoxigenin-labeled decorin", "format": "binding, bovine", "conditions": "SDS-PAGE reducing, probed with digoxigenin-labeled decorin", "experimental": "Decorin from bovine fetal skin was purified and stored in 4 M guanidine hydrochloride at −80° C. and dialyzed extensively against PBS before use. Decorin was labeled with digoxigenin-3-O-methylcarbonyl-ε-aminocaproic acid-N-hydroxy-succinimide ester (digoxigenin) (Boehringer Mannheim, Indianapolis. Ind.) according to the manufacturer's instructions and stored at −20° C. To label decorin with biotin, 7.5 mg of NHS-LC-Biotin (sulfosuccinimidyl-6-(biotinamido) hexanoate) (Pierce, Rockford, Ill.) was dissolved in 100 μl of dimethyl sulfoxide and combined with 0.5 mg of decorin and 0.5 ml of 0.2 M sodium borate (pH 8.0) in a total reaction volume of 1 ml.\nProteins (purified DbpA, DbpA site-directed mutants and OspC) were subjected to SDS-PAGE (reducing conditions) and probed with rabbit anti-DbpA polyclonal sera (R625) or with digoxigenin-labeled decorin.\nFurther, the side chains of lysine residues were chemically modified and the binding properties of the resulting protein examined. […] Both forms of DbpA migrated as two bands, monomers at 20 and 21 kDa and dimers at 40 and 42 kDa for DbpA and chemically modified DbpA (K-mod), respectively. The decorin binding activity of the DbpA and lysine-modified DbpA was examined in a Western ligand blot assay (FIG. 6B)."}}}
{"molecule": "B1", "values": [{"measurement": "positive joint cultures", "setting": "[1]", "value": 20, "unit": "%"}, {"measurement": "DTH response to DbpA (in words)", "setting": "recombinant DbpA; C3H/HeJ mice immunized with 20 μg, challenged with 2 μg recombinant DbpA in footpad, 24 h", "value": "significant inflammation"}, {"measurement": "footpad swelling", "setting": "recombinant DbpA; C3H/HeJ mice, 24 h after challenge with 2 μg recombinant DbpA, mean±SE", "value": "53.3±3.5"}, {"measurement": "recognition by anti-DbpA serum (ELISA, O.D. 410 nm)", "setting": "[2]", "value": "recognized"}, {"measurement": "arthritis incidence and severity (in words)", "setting": "[3]; immunized infected mice", "value": "lowest"}, {"measurement": "% Incidence (arthritis)", "setting": "[3]; immunized mice, day 14 post infection, tibiotarsal joint histology", "value": 20, "unit": "%"}, {"measurement": "Mean Arthritis Rating", "setting": "[3]; severity score 0-4 by neutrophil infiltrate, day 14 post infection", "value": 0.2}, {"measurement": "positive blood cultures", "setting": "[4]", "value": "50-60%"}, {"measurement": "decorin binding in Western ligand blot", "setting": "decorin", "value": "bound digoxigenin-labeled decorin"}]}
